We go through three proteins from publication PMC6210165, “Structure-Based Engineering of Phanerochaete chrysosporium Alcohol Oxidase for Enhanced Oxidative Power toward Glycerol” (Biochemistry, 2018).

B1: PcAOX (His-SUMO-PcAOX) (Phanerodontia chrysosporium) (protein)
chain: MGHPEEVDVIVCGGGPAGCVVAGRLAYADPTLKVMLIEGGANNRDDPWVYRPGIYVRNMQRNGINDKATFYTDTMASSYLRGRRSIVPCANILGGGSSINFQMYTRASASDWDDFKTEGWTCKDLLPLMKRLENYQKPCNNDTHGYDGPIAISNGGQIMPVAQDFLRAAHAIGVPYSDDIQDLTTAHGAEIWAKYINRHTGRRSDAATAYVHSVMDVQDNLFLRCNARVSRVLFDDNNKAVGVAYVPSRNRTHGGKLHETIVKARKMVVLSSGTLGTPQILERSGVGNGELLRQLGIKIVSDLPGVGEQYQDHYTTLSIYRVSNESITTDDFLRGVKDVQRELFTEWEVSPEKARLSSNAIDAGFKIRPTEEELKEMGPEFNELWNRYFKDKPDKPVMFGSIVAGAYADHTLLPPGKYITMFQYLEYPASRGKIHIKSQNPYVEPFFDSGFMNNKADFAPIRWSYKKTREVARRMDAFRGELTSHHPRFHPASPAACKDIDIETAKQIYPDGLTVGIHMGSWHQPSEPYKHDKVIEDIPYTEEDDKAIDDWVADHVETTWHSLGTCAMKPREQGGVVDKRLNVYGTQNLKCVDLSICPDNLGTNTYSSALLVGEKGADLIAEELGLKIKTPHAPVPHAPVPTGRPATQQVR
notes: codon-optimized, E. coli BL21(DE3); N-terminal His-SUMO fusion kept for all kinetics, tag cleaved for crystals; homo-octamer with FAD; residues 2-645 seen in structure
B2: PcAOX (His-SUMO-PcAOX) (Phanerodontia chrysosporium; F101N) (protein)
chain: B1 chain with F101N
notes: as for B1
B3: PcAOX (His-SUMO-PcAOX) (Phanerodontia chrysosporium; F101S) (protein)
chain: B1 chain with F101S
notes: as for B1

Where a chain is given by its changes, count along the chain named. In names and notes the source's numbering stands.

The term Km denotes the substrate concentration at which the rate is half of its maximum. As usually defined, the kcat is the maximal rate divided by the concentration of active sites. A word on the kcat/Km: it is the second-order rate constant that governs catalysis at low substrate concentration.

Substrate in the first data set: CCO
As to the kind of experiment: purified protein. The settings on record: 50 mM potassium phosphate pH 7.5, 25 °C, co-substrate O2, fit errors ≤11%.
As to B1, the Km is on record as 15 mM, the kcat amounted to 19 s⁻¹ and the kcat/Km amounted to 1300 M⁻¹ s⁻¹.
The corresponding values for B2 are 11 mM, 10 s⁻¹ and 910 M⁻¹ s⁻¹.
Take B3: the Km was 1 mM, the kcat turned out to be 5 s⁻¹ and the kcat/Km came out at 5000 M⁻¹ s⁻¹.

Substrate in another data set: CCCO
As to the kind of experiment: HRP-coupled H2O2 assay, steady-state kinetics. Type of data set: biochemical, Phanerodontia chrysosporium. The settings on record: 50 mM potassium phosphate pH 7.5, 25 °C, co-substrate O2, fit errors ≤11%. An excerpt: (§1) HRP-coupled H2O2 assay, steady-state kinetics on PcAOX (His-SUMO-PcAOX)
On to B1, for which the Km was found to be 45 mM, the turnover number (kcat) stood at 11 s⁻¹ and the kcat/Km was 240 M⁻¹ s⁻¹.
Consider B2, for which the Km is on record as 11 mM, the kcat was determined as 12 s⁻¹ and the kcat/Km worked out at 1100 M⁻¹ s⁻¹.
On to B3, for which the Km is reported as 4 mM, the kcat was 7 s⁻¹ and the kcat/Km was determined as 1800 M⁻¹ s⁻¹.

Substrate in a further data set: CO
As to the kind of experiment: HRP-coupled H2O2 assay, steady-state kinetics. Type of data set: biochemical, Phanerodontia chrysosporium. The settings on record: 50 mM potassium phosphate pH 7.5, 25 °C, co-substrate O2, fit errors ≤11%.
Text: as §1
B1: the Km is reported as 2 mM, the kcat turned out to be 18 s⁻¹ and the kcat/Km amounted to 9000 M⁻¹ s⁻¹.
Taken in the same sequence, the figures for B2 were 14 mM, 10 s⁻¹ and 710 M⁻¹ s⁻¹.
Take B3: the Km was 2 mM, the catalytic constant (kcat) is 18 s⁻¹ and the kcat/Km was 9000 M⁻¹ s⁻¹.
